From article PMC8079415, “Neutron reflectometry and NMR spectroscopy of full-length Bcl-2 protein reveal its membrane localization and conformation” (Communications Biology, 2021)
Each block holds one binder with its values, some of them ahead of it.

Assays:
Settings in all cases: both partners purified
[1] = target: T1, full-length human Bcl-2 protein (human, UniProt P10415 1-239); assay: NMR titration; Bax-BH3 peptide added at 1:1, 1:3, 1:6 and 1:12 molar ratio to 0.3 mM Bcl-2 or 0.25 mM Bcl-2 ΔTM; 1H-15N TROSY-HSQC, chemical shift perturbations; 5 mM DPC micelles, 20 mM NaPi, 20 mM NaCl, 2 mM TCEP, pH 6.0, 310 K
T1 construct: three additional N-terminal residues left by the design of the pET-15b expression vector; Bcl-2 (B-cell lymphoma 2), human, full length, 239 aa; 15N (or 13C,15N) uniformly labelled for NMR; Surmise: GSH is what is left after the pET-15b His tag is cut off with thrombin; also called B-cell lymphoma 2; intact human Bcl-2; source: in DPC micelles

[2] = target: T2, Bcl-2 ΔTM (aa 1-207) (human, UniProt P10415 1-207); assay: as above
T2 construct: three additional N-terminal residues left by the design of the pET-15b expression vector; Bcl-2, human, residues 1-207; a stop codon ends the protein at position 207; 15N labelled for NMR; Made from the full-length construct by site-directed mutagenesis (stop codon TAA); also called Bcl-2 ∆TM; soluble variant with the C-terminal anchor removed; source: E. coli, pET-15b, purified as the …

[3] = target: T3, Bim (138-174) BH3 peptide from Homo sapiens (Homo sapiens, N-terminal acetyl (Ac-); C-terminal amide (-NH2)); assay: NMR titration; Bim-BH3 peptide added at 1:1, 1:3 and 1:6 molar ratio to 0.4 mM Bcl-2ΔN(1-82); 1H-15N TROSY-HSQC; 5 mM DPC micelles, 20 mM NaPi, 20 mM NaCl, 2 mM TCEP, pH 6.0; clear samples after centrifugation
T3 construct: Bim, Homo sapiens, residues 138-174; The peptide formed a colloidal suspension in buffer; spectra were recorded on clear samples after centrifugation; also called Bim-BH3 peptide; Bim peptide; source: synthetic peptide, bought: GenScript

[4] = target: T1, full-length human Bcl-2 protein; assay: NMR titration; Nur77 peptide added at 1:6, 1:12 and 1:24 molar ratio to 0.3 mM Bcl-2; 1H-15N TROSY-HSQC, chemical shift perturbations; 5 mM DPC micelles, 20 mM NaPi, 20 mM NaCl, 2 mM TCEP, pH 6.0

T3 sequence (peptide, as listed by the source): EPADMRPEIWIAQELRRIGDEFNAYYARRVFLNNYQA
T2 sequence (P10415 other isoform, or with tags, fused parts or gaps mutant): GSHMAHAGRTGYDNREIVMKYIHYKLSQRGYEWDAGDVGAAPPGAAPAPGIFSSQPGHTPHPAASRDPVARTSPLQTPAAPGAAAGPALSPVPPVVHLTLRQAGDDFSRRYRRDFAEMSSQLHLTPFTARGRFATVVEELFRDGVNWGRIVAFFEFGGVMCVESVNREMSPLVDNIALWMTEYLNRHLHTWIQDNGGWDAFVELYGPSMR

binding result [1]: binds | binding result [2]: binds
B1: 36-mer Bax-BH3 peptide from Mus musculus (peptide)
peptide: Ac-QPPQDASTKKLSECLRRIGDELDSNMELQRMIADVD-NH2
notes: Bax, Mus musculus, BH3 region, 36 residues; also called Bax-derived BH3 peptide; source: synthetic peptide, bought: GenScript

binding result [3]: binds
B2: Bcl-2 ΔN(1-82) (domain or fragment, human)
chain: GSHMGPALSPVPPVVHLTLRQAGDDFSRRYRRDFAEMSSQLHLTPFTARGRFATVVEELFRDGVNWGRIVAFFEFGGVMCVESVNREMSPLVDNIALWMTEYLNRHLHTWIQDNGGWDAFVELYGPSMRPLFDFSWLSLKTLLSLALVGACITLGAYLGHK
notes: three additional N-terminal residues left by the design of the pET-15b expression vector; added start methionine: the construct starts its N-terminus with residues MGP (M before G83, P84); Bcl-2, human, the first 82 N-terminal amino acids deleted, C-terminal residues kept (full length is 239 aa); Gene bought from GenScript and sub-cloned into pET-15b; source: E. coli, pET-15b, purified as the …

binding result [4]: binds
B3: Nur77 peptide (peptide)
peptide: Ac-FSRSLHSLL-NH2
notes: Nur77 (NR4A1), 9-residue peptide; source: synthetic peptide, bought: GenScript
